Experimental findings from publication PMC5947528 are described below.

The target of the assay is E. coli 3'-phosphoadenosine 5'-phosphosulfate (PAPS) reductase (E. coli) (UniProt P17854).
Sequence of UniProt P17854 (P17854 whole entry): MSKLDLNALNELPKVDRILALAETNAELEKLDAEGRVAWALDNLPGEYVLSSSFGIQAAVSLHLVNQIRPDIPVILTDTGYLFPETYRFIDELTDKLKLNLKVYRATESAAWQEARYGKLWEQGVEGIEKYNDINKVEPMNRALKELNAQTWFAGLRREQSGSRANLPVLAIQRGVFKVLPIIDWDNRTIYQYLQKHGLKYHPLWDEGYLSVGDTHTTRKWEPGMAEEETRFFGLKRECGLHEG

B1: Arabidopsis thaliana TrxH1 (enzyme)
chain: MASEEGQVIACHTVETWNEQLQKANESKTLVVVDFTASWCGPCRFIAPFFADLAKKLPNVLFLKVDTDELKSVASDWAIQAMPTFMFLKEGKILDKVVGAKKDELQSTIAKHLA
In the case of B1, the kcat Km^-1 of PR with the redoxin, percent of that with E. coli Trx1 is 18%.

B2: human Trx1 (enzyme)
chain: MVKQIESKTAFQEALDAAGDKLVVVDFSATWCGPCKMIKPFFHSLSEKYSNVIFLEVDVDDCQDVASECEVKCMPTFQFFKKGQKVGEFSGANKEKLEATINELV
Turning to B2, the kcat Km^-1 of PR with the redoxin, percent of that with E. coli Trx1 is 59%.

B3: Arabidopsis thaliana TrxH3 (enzyme)
chain: MAAEGEVIACHTVEDWTEKLKAANESKKLIVIDFTATWCPPCRFIAPVFADLAKKHLDVVFFKVDVDELNTVAEEFKVQAMPTFIFMKEGEIKETVVGAAKEEIIANLEKHKTVVAAA
B3: the Km of PR for the redoxin as electron donor (PAPS reductase assay) is 17.8 µM; the Vmax of PR with the redoxin as electron donor (PAPS reductase assay) was 13.2 U mg^-1; the kcat Km^-1 of PR with the redoxin, percent of that with E. coli Trx1 was found to be 154%.

B4: Arabidopsis thaliana TrxH2 (enzyme)
chain: MGGALSTVFGSGEDATAAGTESEPSRVLKFSSSARWQLHFNEIKESNKLLVVDFSASWCGPCRMIEPAIHAMADKFNDVDFVKLDVDELPDVAKEFNVTAMPTFVLVKRGKEIERIIGAKKDELEKKVSKLRA
B4: the Km of PR for the redoxin as electron donor (PAPS reductase assay) was 43.1 µM and the kcat Km^-1 of PR with the redoxin, percent of that with E. coli Trx1 stood at 23%.

B5: Arabidopsis thaliana TrxH4 (enzyme)
chain: MAAEEGQVIGCHTNDVWTVQLDKAKESNKLIVIDFTASWCPPCRMIAPIFNDLAKKFMSSAIFFKVDVDELQSVAKEFGVEAMPTFVFIKAGEVVDKLVGANKEDLQAKIVKHTGVTTA
In the case of B5, the Km of PR for the redoxin as electron donor (PAPS reductase assay) turned out to be 26.1 µM.
